Reference: article PMC12489045, “Non-coding RNA mediates the defense-associated reverse transcriptase (DRT) anti-phage oligomerization transition” (The EMBO Journal, 2025)

Legend:
[1] = target: DRT9 reverse transcriptase (DRT9-RT protein), wild type, in complex with its ncRNA (Escherichia coli); experiment: cryo-EM structure; DRT9 RT-ncRNA complex without dNTPs, 2 mg/ml; 3.49 Å
[2] = target: DRT9 reverse transcriptase (DRT9-RT protein), wild type, in complex with its ncRNA (Escherichia coli); experiment: cryo-EM structure; DRT9 RT-ncRNA complex (2 mg/ml) with 1 mM of each dNTP, 25 mM Tris-HCl pH 7.5, 150 mM NaCl, 5 mM MgCl2, room temperature 1 h; 3.46 Å

fraction of particles that are hexamers (without dNTPs) [1]: 13%
stoichiometry N [1]: 4
stoichiometry N [2]: 6
Substance: DRT9 reverse transcriptase (DRT9-RT protein), wild type, in complex with its ncRNA (enzyme)
